Substitutions are numbered along the chain they refer to.
B1: humanized 11K2 H1-L2 (antibody, human IgG1, V domains shown)
VH: QVQLVQSGAEVKKPGSSVKVSCKASGLNIKDTYMHWVRQAPGQGLEWIGRIDPANGNTKFDPKFQGRATITADTSTSTAYMELSSLRSEDTAVYYCARGVFGFFDYWGQGTTVTVSS
VL: DIQMTQSPSSLSASVGDRVTITCKATEDIYNRLAWYQQKPGKAPKLLISGATSLETGVPSRFSGSGSGTDYTLTISSLQPEDFATYYCQQFWSAPYTFGGGTKVEIKR
notes: human IgG1 kappa
B2: humanized 11K2 H2-L2 (antibody, human IgG1, V domains shown)
VH: B1 VH with N28T, K30S, I48M, A68V
VL: B1 VL
notes: human IgG1 kappa
B3: monoclonal antibody 6D21 (antibody, mouse IgG1, V domains shown)
VH: EVQLQQSGAELVKAGASVKLSCPASGLNIKDTYMHWVKQRPEQGLEWIGRIDPANGNTKFDPKFQGKATITADTSSNTAYLQLSSLTSEDTAVYYCARGVFGFFDYWGQGTTLTVSS
VL: DIQMTQSSSSFSVSLGDRVTITCKATEDIYNRLAWYQQKPGSAPRLLISGATSLETGVPSRFSGSGSGKDYTLSITSLQTEDVATYYCQQFWSAPYTFGGGTKLEIK
notes: mouse IgG1; also called 6D21.1
B4: monoclonal antibody 4N4 (antibody, mouse IgG1, V domains shown)
VH: B3 VH
VL: B3 VL
notes: mouse IgG1; also called 4N4.1
B5: monoclonal antibody 5A13 (antibody, mouse IgG1, V domains shown)
VH: B3 VH
VL: B3 VL
notes: mouse IgG1; also called 5A13.1
B6: monoclonal antibody 7H1 (antibody, mouse IgG1, V domains shown)
VH: B3 VH
VL: B3 VL
notes: mouse IgG1; also called 7H1.1
B7: monoclonal antibody 6I5 (antibody, mouse IgG1, V domains shown)
VH: B3 VH
VL: B3 VL
notes: mouse IgG1; also called 6I5.1; 615
B8: Fab fragment of humanized 11K2 H1L1 (Fab, V domains shown)
VH: B1 VH
VL: B1 VL with T69K
B9: Fab fragment of humanized 11K2 H1L2 (Fab, V domains shown)
VH: B1 VH
VL: B1 VL
B10: Fab fragment of humanized 11K2 H2L1 (Fab, V domains shown)
VH: B1 VH with N28T, K30S, I48M, A68V
VL: B1 VL with T69K
B11: Fab fragment of humanized 11K2 H2L2 (Fab, V domains shown)
VH: B1 VH with N28T, K30S, I48M, A68V
VL: B1 VL
B12: Fab fragment of chimeric 11K2 (Fab, V domains shown)
VH: B3 VH
VL: DIQMTQSSSSFSVSLGDRVTITCKATEDIYNRLAWYQQKPGSAPRLLISGATSLETGVPSRFSGSGSGKDYTLSITSLQTEDVATYYCQQFWSAPYTFGGGTKLEIKR
notes: also called Ch11K2

These binders were tested against T1, human MCP-3 (human, UniProt P80098 24-99) (assay: ELISA).
T1 construct: also called hMCP-3

| Binder | binding result |
| --- | --- |
| B1 | no binding |
| B2 | no binding |

These binders were tested against T2, human fractalkine (human, UniProt P78423 25-100, limits assumed) (assay: ELISA, supernatant).
T2 sequence (looked up): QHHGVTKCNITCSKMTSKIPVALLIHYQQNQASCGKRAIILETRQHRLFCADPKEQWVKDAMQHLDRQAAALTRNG
Procedure: (§1) MaxiSorp 384 well plates were coated with 15-20 μl antigen in PBS. Recombinant purified human antigens included: MCP-1, MCP-2, MCP-3, MCP-4, IL-8, eotaxin, fractalkine, Gcp-2, DC-CK (Gcp-2 and DC-CK are also chemokines). Plates were incubated with antigen for 2 hours at 37° C. or overnight at 4° C. Non-specific sites were blocked with 80 μl/well of 1% BSA/PBS for 1 hour at room temperature. Plates were washed and 15 μl of hybridoma supernatant was added to each well and incubated for 1 hour at room temperature. Plates were washed and wells were incubated with 20 μl/well of a 1:25 000 dilution of goat anti-mouse IgG peroxidase conjugate (Jackson Catalog Number 515-036-003). Plates were incubated for 1 hour at room temperature, washed, and 20 μl/well of substrate (TMB, tetramethylbenzidine, Jackson, Catalog Number 515-036-062) was added. Reaction was allowed to proceed and stopped by addition of 20 μl/well of 2M H₂SO₄. Reactive clones were picked for further analysis. Isotyping of hybridoma supernatants was performed by antigen-dependent ELISA. Briefly, wells were coated with 50 μl of human MCP-1 (5 μg/ml) for 1 hour at 37° C. Wells were washed 4 times and blocked with PBS/1% BSA. Isotyping of hybridoma supernatants was then performed using a mouse immunoglobulin screening/isotyping kit (Zymed Laboratories, San Francisco, —CA) as recommended by the manufacturer.

| Binder | binding result |
| --- | --- |
| B3 | no binding |
| B4 | no binding |
| B5 | no binding |
| B6 | no binding |
| B7 | no binding |

What follows are binders tested against human Gcp-2 (human, UniProt P80162 38-114, limits assumed) (assay: ELISA, supernatant).
Procedure: as §1

| Binder | binding result |
| --- | --- |
| B3 | no binding |
| B4 | no binding |
| B5 | no binding |
| B6 | no binding |
| B7 | no binding |

Each binder was assayed against T3, human DC-CK (human, UniProt P55774 21-89) (assay: ELISA, supernatant).
T3 sequence (looked up): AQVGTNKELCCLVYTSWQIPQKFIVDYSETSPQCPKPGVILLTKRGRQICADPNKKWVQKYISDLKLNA
Procedure: as §1

| Binder | binding result |
| --- | --- |
| B3 | no binding |
| B4 | no binding |
| B5 | no binding |
| B6 | no binding |
| B7 | no binding |

Each binder was assayed against T4, human MCP-4 (human, UniProt Q99616 24-98, limits assumed) (assay: ELISA, purified mAb).
T4 construct: also called hMCP-4
Procedure: (§2) ELISA specificity assays were performed using purified monoclonal antibodies to confirm the binding specificities of the supernatant MCP-specific monoclonal antibodies described above. Antibodies were purified by Protein A affinity column chromatography, according to standard methods known in the art.
(§3) ELISA was performed as previously described in Example 1. Briefly, MaxiSorp 384 well plates were coated with 15-20 μl antigen in PBS. Recombinant purified human antigens included: MCP-1, MCP-2, MCP-3, MCP-4, IL-8, eotaxin, murine MCP-1 (JE), murine MCP-3, murine MCP-5, and rat MCP-1. All antigens, including MCP-3, were immobilized. Plates were washed and purified monoclonal antibody (10 μg/ml) was added to each well and incubated for 1 hour at room temperature. Plates were washed and wells were incubated with 20 μl/well of a 1:25,000 dilution of goat anti-mouse IgG peroxidase conjugate (Jackson Catalog Number 515-036-003). Plates were incubated for 1 hour at room temperature, washed, and 20 μl/well of substrate (, tetramethylbenzidine, Jackson, Catalog Number 515-036-062) was added. Reaction was allowed to proceed and stopped by addition of 20 μl/well of 2M H₂SO₄. Antibodies 1A1 bound specifically to hMCP-1, hMCP-2, hMCP-3, and mMCP-1. Antibodies 11K2, 4N4, 5A13, 6D21, 615, and 7H1 bound specifically to hMCP-1, hMCP-2, hMCP-3, mMCP-1, mMCP-3, and mMCP-5.

| Binder | binding result |
| --- | --- |
| B3 | no binding (tested: 10 µg/ml) |
| B4 | no binding (tested: 10 µg/ml) |
| B5 | no binding (tested: 10 µg/ml) |
| B6 | no binding (tested: 10 µg/ml) |
| B7 | no binding (tested: 10 µg/ml) |

These binders were tested against T5, human IL-8 (human, UniProt P10145 28-99, limits assumed) (assay: ELISA, purified mAb).
T5 construct: also called hIL8
Procedure: as §2, §3

| Binder | binding result |
| --- | --- |
| B3 | no binding (tested: 10 µg/ml) |
| B4 | no binding (tested: 10 µg/ml) |
| B5 | no binding (tested: 10 µg/ml) |
| B6 | no binding (tested: 10 µg/ml) |
| B7 | no binding (tested: 10 µg/ml) |

These binders were tested against T6, human eotaxin (human, UniProt P51671 24-97) (assay: ELISA, purified mAb).
T6 construct: also called hEotaxin
Procedure: as §2, §3

| Binder | binding result |
| --- | --- |
| B3 | no binding (tested: 10 µg/ml) |
| B4 | no binding (tested: 10 µg/ml) |
| B5 | no binding (tested: 10 µg/ml) |
| B6 | no binding (tested: 10 µg/ml) |
| B7 | no binding (tested: 10 µg/ml) |

These binders were tested against T7, human MCP-1 (human, UniProt P13500 24-99) (assay: KinExA, in solution, Fab).
T7 construct: also called hMCP-1; huMCP-1
Procedure: (§4) 1 ml of MCP-1 at a concentration of 10 μg/ml in NaHCO₃ was added to an amount of beads equivalent to 1 ml of the original slurry. The beads were rocked overnight at 4° C. Beads were spun down and washed once with 1M Tris, pH 8.0, then resuspended in 1M Tris pH 8.0 with 1% BSA, 0.02% azide. The beads were rocked at room temperature for one hour then stored at 4° C. in this buffer for the duration of the experiments.
(§5) The KinExA 3000 measures protein-protein interaction in solution, and is ideally suited for measuring affinities of antibodies to antigens. In the typical experiment, antigen (MCP) is immobilized on a bead, antibody is flowed over a column of these beads at a given concentration, and the antibody that binds to the beads is detected using a fluorescent secondary. Antibody at a fixed concentration is then incubated with different concentrations of antigen in solution and the amount of free antibody is measured by flowing the mixture over the bead column quickly enough that no re-equilibration occurs between solution and solid phase. The amount of antibody remaining free is plotted against the concentration of antigen added and the data are fit to a quadratic equation to determine the affinity of the interaction in solution.
(§6) In these experiments, the only difference to the typical experiment described above is that instead of using intact antibody, a Fab fragment of 11K2 was used. Earlier KimExA experiments using the intact murine 11K2 mAb binding to MCP-1 and MCP-2 gave biphasic curves that the software could not interpret. This may be due to these proteins acting as dimers, so to eliminate the dimer/dimer interaction we generated Fab fragments. The binding of the 11K2 Fab fragments to MCP-1 and MCP-2 produced curves that the KinExA software could fit.

| Binder | Kd [nM] |
| --- | --- |
| B8 | 0.0364 |
| B9 | 0.0623 |
| B10 | 0.064 |
| B11 | 0.0775 |
| B12 | 0.0196 |

Each binder was assayed against T8, human MCP-2 (human, UniProt P80075 24-99) (assay: KinExA, in solution, Fab).
T8 construct: also called hMCP-2; huMCP-2
T8 sequence (looked up): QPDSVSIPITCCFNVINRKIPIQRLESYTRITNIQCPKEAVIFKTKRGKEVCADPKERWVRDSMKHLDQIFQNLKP
Procedure: as §4, §5, §6

| Binder | Kd [nM] |
| --- | --- |
| B8 | 0.725 |
| B9 | 0.712 |
| B10 | 0.94 |
| B11 | 3.2 |
| B12 | 0.226 |

What follows are binders tested against T8, human MCP-2 (assay: ELISA on immobilised MCP-2, absorbance 450 nm).

| Binder | EC50 (read off the curve) [µg/mL] |
| --- | --- |
| B1 | ~0.3 |
| B2 | ~0.3 |

What follows are binders tested against T7, human MCP-1 (assay: ELISA on plate-coated human MCP-1, anti-human IgG-HRP; y axis unlabelled, OD 405 nm per paragraph 382).
Procedure: Binding specificities of chimeric 11K2 and the four versions of humanized 11K2 (H1-L1, H1-L2, H2-L1, and H2-L2) were determined by ELISA, according to the protocol described in Example 1.
ELISA plates (Corning, Inc. Cat#3369) were coated with 50 ng MCP-1 per well overnight at 4° C. Plates were washed then blocked with PBS/5% milk for 1.5 hrs at 25° C. Another wash was followed by incubation with the 11K2 mAbs (or 3G9 isotype control) at the concentrations indicated for 1 hr at 25° C. After washing, the plates were incubated with secondary antibody (anti-human IgG-HRP, Jackson Immunoresearch Cat#109-036-088) for 1 hr at 25° C. Plates were then washed and developed using the ABTS Peroxidase Substrate Kit (Vector Laboratories Cat#SK-4500). OD (405 nm) values were plotted as a function of 11K2 mAb concentration.

| Binder | EC50 (read off the curve) [ng/mL] |
| --- | --- |
| B1 | ~20 |
| B2 | ~20 |
